The target of the experiment is Mycobacterium tuberculosis cell wall sulfoglycolipid peptide on CD1b (human). Briefly: IFN-γ ELISPOT. CD4 clone of primary T cells transduced with the A05 TCR, with K562-CD1b. SGL was titrated from 1 µg/ml to 10^-7 µg/ml. This EC50 is stated to be 100-fold lower than that of an A05-CD8 T cell clone.; full-length, on cells. Particulars: chains alpha TRAV13-2 TRAJ52 CDR3:beta TRBV20-1 TRBJ1-2 CDR3.

B1: A05 TCR (peptide)
chain 1: CAEVLGGTSYGKLTF
chain 2: CSASGRRGYGYTF
Turning to B1, the EC50 of peptide stood at 0.6 ng/mL.

Values taken from PMC8748927.
